Test results from patent US20260103513A1.

Columns and labels:
[1] = target: TIGIT protein overexpressed on cells (Homo sapiens (Human)) (UniProt Q495A1); assay: flow cytometry on 293T-TIGIT cells, Alexa-647 anti-human Fc, MFI
[2] = target: Cynomolgus monkey TIGIT-His tag fusion protein (cynomolgus monkey); assay: ELISA, cynomolgus TIGIT-His coated, HRP anti-human IgG, OD450
Cynomolgus monkey TIGIT-His tag fusion protein (cynomolgus monkey), sequence (chain, as listed by the source): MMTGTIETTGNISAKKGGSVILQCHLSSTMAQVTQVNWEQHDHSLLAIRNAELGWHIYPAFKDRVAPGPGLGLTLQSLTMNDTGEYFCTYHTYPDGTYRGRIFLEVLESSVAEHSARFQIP

TIGIT protein overexpressed on cells (Homo sapiens (Human)), sequence (Q495A1 22-244): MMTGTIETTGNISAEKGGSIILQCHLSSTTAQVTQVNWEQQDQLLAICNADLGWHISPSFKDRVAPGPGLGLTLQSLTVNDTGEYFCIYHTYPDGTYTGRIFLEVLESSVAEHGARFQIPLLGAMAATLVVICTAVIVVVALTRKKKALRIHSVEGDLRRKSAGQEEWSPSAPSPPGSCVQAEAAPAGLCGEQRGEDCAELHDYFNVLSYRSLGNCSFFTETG

- EC50 (read off the curve) [1]: 0.4 µg/mL
- EC50 (read off the curve) [2]: 0.08 µg/mL
Substance: Tiragolumab analog (antibody)
